Laboratory results from patent publication US20230071609A1 (Genentech, published 2023).

T1: endogenous human APOL1 (wild-type immortalized podocytes; also JHH-1 cells, kidney and liver tissue) (human, UniProt O14791 28-398)
T1 construct: whole, on cells; Cell or tissue and permeabilization are told under assay; also called podocyte APOL1; endogenous APOL1
T1 sequence (looked up): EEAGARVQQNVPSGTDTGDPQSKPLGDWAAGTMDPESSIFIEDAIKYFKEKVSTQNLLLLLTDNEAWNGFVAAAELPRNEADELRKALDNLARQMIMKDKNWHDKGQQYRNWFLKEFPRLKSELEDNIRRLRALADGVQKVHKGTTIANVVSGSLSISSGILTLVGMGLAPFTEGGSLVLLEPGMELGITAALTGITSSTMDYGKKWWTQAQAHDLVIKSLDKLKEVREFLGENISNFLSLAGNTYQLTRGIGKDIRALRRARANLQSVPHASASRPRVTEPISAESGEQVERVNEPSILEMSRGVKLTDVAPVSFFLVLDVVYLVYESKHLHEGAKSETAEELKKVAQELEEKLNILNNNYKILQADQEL

T2: APOL6-myc-FLAG (human, UniProt Q9BWW8 1-343)
T2 construct: whole, on cells; In fixed, permeabilized transfected COS cells; untagged APOL6 in the western blots; not shown: C-terminal myc-FLAG tag
T2 sequence (looked up): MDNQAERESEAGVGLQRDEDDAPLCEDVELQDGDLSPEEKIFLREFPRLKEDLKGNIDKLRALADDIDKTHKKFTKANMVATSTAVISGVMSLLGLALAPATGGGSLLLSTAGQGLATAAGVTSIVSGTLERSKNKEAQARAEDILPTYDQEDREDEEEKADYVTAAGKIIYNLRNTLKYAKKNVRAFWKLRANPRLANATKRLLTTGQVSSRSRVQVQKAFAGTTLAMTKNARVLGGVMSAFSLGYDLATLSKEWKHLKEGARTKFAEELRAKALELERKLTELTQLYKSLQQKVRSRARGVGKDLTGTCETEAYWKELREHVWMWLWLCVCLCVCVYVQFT


How the values were obtained:
[1] = biological target: T1, endogenous human APOL1 (wild-type …); assay: summary of the Examples: podocyte flow cytometry
Protocol: Cells were harvested with 5 mM EDTA in PBS, washed once with growth media and twice with PBS. Approximately 0.5×10⁶/m1 of cells resuspended in PBS were incubated with anti-APOL1 antibodies for 1 h on ice. Following two PBS washes, 2 μg/ml of Alexa488 anti-mouse or anti-rabbit (Invitrogen A11029 and A21206, respectively) was used for 1 h on ice for detection. Cells were washed twice in PBS and resuspended in PBS with 1 μg/ml propidium iodide. Signals were read in a FACSCalibur3 (Becton Dickinson), with the exception of FIG. 8A and FIG. 14, which used a FACSCelesta, and data was analyzed using FlowJo v8.4.5. Mean fluorescence intensities were plotted in PRISM v7 after subtraction of secondary antibody alone background. For low pH experiments, cells were incubated with the antibodies in the presence of PBS pH 7.0 or PBS pH 5.5 for an hour on ice and detected with secondary antibodies at neutral pH.

APOL6-myc-FLAG = biological target: T2, APOL6-myc-FLAG; assay: immunofluorescence on transfected COS cells; grade
From the text: COS cells were transfected as in FIG. 31A except APOL1 and APOL2 were also C-terminally myc-FLAG tagged. Overlays of APOL with epitope tags: either mouse anti-FLAG-M2 or mouse anti-myc 9E10 for anti-APOL1 rabmabs; or rabbit anti-Myc 71D10 in conjunction with mouse anti-APOL1. Signals indicate the two antibodies overlap (i.e. anti-APOL1 cross-reacts with that APOL); signals (epitope tag only) indicate no cross-reactivity. Alexa647 anti-rabbit or mouse were used for the tags to rule out the possibility that any colocalization was a bleed-through artifact. Sparsely transfected areas were imaged to permit evaluation of background staining in adjacent untransfected cells—DAPI nuclear staining identifies both untransfected and transfected cell nuclei. […] Note that none of the antibodies cross-reacted with the more distantly related APOL6. *, APOL2-myc-FLAG is presumably misfolded, since it is not as cross-reactive as untagged APOL2 (compare FIG. 31A) with several antibodies. Commercial antibodies are Sigma HPA018885, Epitomics EPR2907 (2) (Epito) and Proteintech 11486-2-AP (Ptech).
Cells were plated on LabTekII (Nalge Nunc 154534) slides and fixed at 70-100% confluency. For mAb screening, cells were fixed/permeabilized for 5 min in −20° C. methanol (EMD MX0485-6). For all other experiments, cells were fixed in 3% paraformaldehyde in PBS (EMS 15710) for 20 mins at room temperature, quenched with 50 mM NH₄Cl in PBS for 10 mins, then permeabilized with 0.1% TX-100 in PBS for 4 mins or for 1h in saponin buffer [0.4% saponin (Sigma S7900), 1% bovine serum albumin (BSA; Sigma A2153), 2% fetal bovine serum (Seradigm) in PBS]. First antibodies (stored sterile at 4° C.) were applied for 1 h at room temperature, at 1 μg/ml for screening on transfected cells or at subsequently optimized concentrations for detecting endogenous APOL1. After 3×10 min washes in PBS (for Methanol or TX-100 protocols) or saponin buffer (saponin protocol), secondary antibodies were applied at 1.88 μg/ml for 1 h at room temperature, washed 3× and mounted under No. 1.5 coverslips in ProLong Gold with DAPI (4′,6-diamidino-2-phenylindole; Life Technologies P36931).

binding result (APOL6-myc-FLAG)	Binder	binding result [1]
–	antibody 4.12E5 (antibody, V domains shown, Mouse mAb, cloned as murine IgG2a LALAPG) VH: EVQLQQSGPELVKTGASVKISCKASGYSFTGYFMHWVKQSHGKSLEWIGYISCYNGASVYNQRFKGKATFTIDTSSSTAYMQFNSLTSEDSAVYYCARDVLRYPRYAVDYWGQGTSVTVSS VL: not shown	binds
no binding (tested: 1 µg/ml)	antibody 3.6D12 (antibody, V domains shown, Mouse mAb (Method #3), cloned as murine IgG2a LALAPG; Early screens used hybridoma-purified antibody; also called mAb 3.6D12) VH: EVMLVESGGGLVRPGGSLKLSCTASGFTFSRCAMSWVRQTPEKRLEWVSAISRDSTYTYYSDSVKGRFTVSRDNAKNTLYLQMSSLRSEDTAMYYCARQIDDYYVDALDYWGQGTSVTVSS VL: DVQITQSPSYLAASPGETITINCRASKIISKYLAWYQEKPGKTIKLLIYSGFTLQSGIPSRFSGSGSGTDFTLTISSLEPEDFAMYYCQQHNEYPLTFGAGTKLEIKR	–
no binding (tested: 1 µg/ml)	antibody 3.1C1 (antibody, V domains shown, Mouse mAb, cloned as murine IgG2a LALAPG; not written separately; also called SRA-ID mAb 3.1C1) VH: QVQLQQSGPELVKPGASVRISCKASGYTFTNYFIHWVKQRPGQGLEWIGWINPGNLNTKYTEEFKGKATLTADKSSSTAYIQLNSLTSEDSAVYFCVNGNPFVYWGQGTLVTVSA VL: DIVMTQSPSSLTVIAGEKVTLNCKSSQSLLNSGNQKKYLTWLQQKPGQPPKLLIYWTSTRDSGVPDRFTGSGSGTDFTLTISSVQAEDLAVYYCQNDYSYPLTFGAGTKLEIKR	binds
no binding (tested: 1 µg/ml)	antibody 3.6E10 (antibody, V domains shown, Mouse mAb, cloned as murine IgG2a LALAPG) VH: QVQLQQSGAELAKPGASVKMSCKASGYIFTSYYLHWVKQRPGQGLEWIGYINPNTGYTEYTQNFKDRATLTADKSSSTAYMQLTSLTSEDSAVYFCVNGNPFVYWGQGTLVTVSA VL: DIVMTQSPSSLTVTTGEKVTMTCRSSQSLLNSGNQKNYLTWFQQKPGQPPKLLIYWTSTRYSGVPDRFTGSGSGTDFTLTISSVQAEDLAVYYCQNDYSYPLTFGAGTKLEIKR	binds
no binding (tested: 1 µg/ml)	antibody 3.7D6 (antibody, V domains shown, Mouse mAb, cloned as murine IgG2a LALAPG; those versions are not written separately; also called PFD antibody 3.7D6) VH: QIQLVQSGPDLKKPGETVKISCRTSGYAFTNYGVNWVKQAPGKGLKWMGWINTNTGQTTYAEEFRGRFAISLETSASTAFLTISNLKNEDSATYFCARLIYDGDYISSDFWGQGTTLTVSS VL: DIQMTQSPDSLSASVGETVTITCGASENIYGALNWYQRKQGKSPQLLIYGATNLADGMSSRFSGSRSGRQYSLKISSLHPDDVATYYCQNALSMPYTFGGGTKLEIKR	–
no binding (tested: 1 µg/ml)	rabbit monoclonal antibody 5.17D12 (antibody, V domains shown, Rabbit mAb (Method #5), recombinant; also called rabmab 5.17D12) VH: QSLEESGGDLVKPGASLTLTCTASGFSFSSNYYMCWVRQAPGKGLEWIACVYVGSGGSTYYASWAKGRFTFSKTSSTTWTLQMTSLTAADTATYFCARDLSYAGDLWGPGTLVTVSS VL: DPVMTQTPASVSEPVGGTVTINCQASESISSYLAWYQQKPGQPPKLLIYGASNLASGVPSRFKGSGSGTEYTLTISDLECDDAATYYCQSAYYSNSGGHAFGGGTEVVVKG	binds
no binding (tested: 1 µg/ml)	antibody 4.17A5 (antibody, V domains shown, Mouse mAb (Method #4), cloned as murine IgG2a LALAPG; also called mAb 4.17A5) VH: QVQLQQSGPELLKPGASVKISCKGSGYAFSNSWINWVKLRPGQGLEWIGRIYPGDGDTKYNGKFKGKATLTADKSSSTAHMQLRSLTSVDSAVYFCARFPFGKYEGPGAMDYWGQGTSVTVSS VL: DIQMTQTTSSLSASLGDRVTISCRASQDISSYLNWYQQKPDGTIKLLIYYTSRLHSGVPSRFSGSGSGTDFSLTISNLEQEDIATYFCQQGNTLPYTFGGGTKLEIKR	–
